Data: patent EP2225268B1

Columns and labels:
[1] = target: Native NGAL purchased from Diagnostics Development (Uppsala, Sweden), non-reduced (UniProt P80188); assay: … sandwich CMIA, capture HYB 211-01, detection acridinium-HYB 211-02; NGAL 1000 ng/mL
[2] = target: Wild-type recombinant human NGAL dimer calibrators treated with DTT (human) (UniProt P80188); assay: as above
[3] = target: Wild-type recombinant human NGAL dimer expressed in CHO cells (human) (UniProt P80188); assay: as above
[4] = target: Wild-type recombinant human NGAL monomer expressed in CHO cells (human) (UniProt P80188); assay: as above
[5] = target: Wild-type recombinant human NGAL dimer calibrators treated with DTT (human) (UniProt P80188); assay: … sandwich CMIA, capture HYB 211-01, detection acridinium-HYB 211-02; curve fit with monomer calibrators; target 600 ng/mL
[6] = target: Wild-type recombinant human NGAL dimer expressed in CHO cells (human) (UniProt P80188); assay: as above
[7] = target: Wild-type recombinant human NGAL monomer expressed in CHO cells (human) (UniProt P80188); assay: as above
[8] = target: Wild-type recombinant human NGAL dimer calibrators treated with DTT (human) (UniProt P80188); assay: … sandwich CMIA, capture HYB 211-01, detection acridinium-HYB 211-02; calibrator E, NGAL 600 ng/mL
[9] = target: Wild-type recombinant human NGAL dimer expressed in CHO cells (human) (UniProt P80188); assay: as above
[10] = target: Wild-type recombinant human NGAL monomer expressed in CHO cells (human) (UniProt P80188); assay: as above
[11] = target: Wild-type recombinant human NGAL dimer calibrators treated with DTT (human) (UniProt P80188); assay: … sandwich CMIA, capture HYB 211-01, detection acridinium-HYB 211-02; DTT-treated dimer calibrators against untreated dimer calibrators
[12] = target: Wild-type recombinant human NGAL monomer expressed in CHO cells (human) (UniProt P80188); assay: … sandwich CMIA, capture 1-2322-455, detection acridinium-1-903-430; monomer calibrator plus TCEP; curve fit with monomer calibrators; target 600 ng/mL
[13] = target: Wild-type recombinant human NGAL dimer expressed in CHO cells (human) (UniProt P80188); assay: … sandwich CMIA, capture 1-2322-455, detection acridinium-1-903-430; NGAL 250 ng/mL
[14] = target: Wild-type recombinant human NGAL monomer expressed in CHO cells (human) (UniProt P80188); assay: as above
[15] = target: Wild-type recombinant human NGAL dimer calibrators with TCEP in the reaction mixture (human) (UniProt P80188); assay: … sandwich CMIA, capture 1-2322-455, detection acridinium-1-903-430; TCEP in reaction; curve fit with monomer calibrators; target 1000 ng/mL
[16] = target: Wild-type recombinant human NGAL monomer expressed in CHO cells (human) (UniProt P80188); assay: … sandwich CMIA, capture 1-2322-455, detection acridinium-1-903-430; monomer calibrator plus TCEP; NGAL 5 ng/mL
[17] = target: Wild-type recombinant human NGAL dimer expressed in CHO cells (human) (UniProt P80188); assay: … sandwich CMIA, capture 1-2322-455, detection acridinium-1-903-430; curve fit with monomer calibrators; target 50 ng/mL
[18] = target: Wild-type recombinant human NGAL monomer expressed in CHO cells (human) (UniProt P80188); assay: as above
[19] = target: Wild-type recombinant human NGAL dimer expressed in CHO cells (human) (UniProt P80188); assay: … sandwich CMIA, capture 1-2322-455, detection acridinium-1-903-430; NGAL 5 ng/mL
[20] = target: Wild-type recombinant human NGAL monomer expressed in CHO cells (human) (UniProt P80188); assay: as above
[21] = target: Wild-type recombinant human NGAL dimer expressed in CHO cells (human) (UniProt P80188); assay: … sandwich CMIA, capture 1-2322-455, detection acridinium-1-903-430; NGAL 50 ng/mL
[22] = target: Wild-type recombinant human NGAL monomer expressed in CHO cells (human) (UniProt P80188); assay: as above
[23] = target: Wild-type recombinant human NGAL monomer expressed in CHO cells (human) (UniProt P80188); assay: … sandwich CMIA, capture 1-2322-455, detection acridinium-1-903-430; monomer calibrator plus TCEP; curve fit with monomer calibrators; target 5 ng/mL
[24] = target: Wild-type recombinant human NGAL dimer calibrators with TCEP in the reaction mixture (human) (UniProt P80188); assay: … sandwich CMIA, capture 1-2322-455, detection acridinium-1-903-430; TCEP in reaction; curve fit with monomer calibrators; target 600 ng/mL
[25] = target: Wild-type recombinant human NGAL monomer expressed in CHO cells (human) (UniProt P80188); assay: … sandwich CMIA, capture 1-2322-455, detection acridinium-1-903-430; monomer calibrator plus TCEP; NGAL 1000 ng/mL

An RLUs [1] of 1.32e+06 RLUs, an RLUs [2] of 855000 RLUs and an RLUs [3] of 390000 RLUs were found for “anti-NGAL antibody HYB 211-01 from AntibodyShop A/S, Gentofte, Denmark” in this work. For the same molecule, the RLUs [4] was 885000 RLUs, the Curve Fit Results [5] was 574 ng/mL and the Curve Fit Results [6] was 161 ng/mL. The Curve Fit Results [7] was 598 ng/mL, the RLUs [8] was 676000 RLUs and the RLUs [9] was 282000 RLUs. It also gave an RLUs [10] of 691000 RLUs and an average % increase of NGAL concentration after reduction of dimers [11] of 248%.

B1: antibody produced by murine hybridoma cell line 1-2322-455 having ATCC Accession No. PTA-8024 (antibody, V domains shown)
VH: EVQLVESGGGLVQPGGSLKLSCAASGFTFNNYYMSWVRQTPERRLEWVAYISSSGGSTYYSDSVRGRFTISRDTARNTLYLQMTSLKSEDTAMYYCARHFGDYSYFDYWGQGTTLTVSS
VL: DIQMTQSPASLSASVGETVTITCRASENFYSYLAWYQQKQGKSPQLLVYNAKTLAEGVPSRFSGSGSGTQFSLKINSLQPEDFGTYYCQHHYDIPLTFGAGTKLELKR
A Curve Fit Results [12] of 608 ng/mL, an RLUs [13] of 336000 RLUs and an RLUs [14] of 900000 RLUs were found for B1 in this work. For the same molecule, the Curve Fit Results [15] was 497 ng/mL, the RLUs [16] was 29300 RLUs and the Curve Fit Results [17] was 13.5 ng/mL. For the same molecule, the Curve Fit Results [18] was 48.2 ng/mL, the RLUs [19] was 9120 RLUs and the RLUs [20] was 29300 RLUs. It also gave an RLUs [21] of 76800 RLUs, an RLUs [22] of 240000 RLUs and a Curve Fit Results [23] of 4.6 ng/mL. The Curve Fit Results [24] was 292 ng/mL and the RLUs [25] was 1.95e+06 RLUs.
